Measured values published in US8394765B2, “Methods of treating obesity with two different anti-obesity agents” (Amylin Pharmaceuticals LLC, priority 2004, dated 2013).

Assays:
[1] = DIO rat 14-day mini-pump study of leptin and amylin: food intake, body weight, body composition (Example 1); format: in vivo; conditions: DIO rats, 14 days s.c. osmotic mini-pump, leptin 500 μg/kg/day, amylin 100 μg/kg/day
From the text: Diet-induced obesity (DIO) in the in the Sprague-Dawley rat is a valuable model for the study of obesity and regulation of energy homeostasis. These rats were developed from a line of (Crl:CD®(SD)BR) rats that are prone to become obese on a diet relatively high in fat and energy. See, for example, Levin (1994) Am. J. Physiol. 267:R527-R535, Levin et al. (1997) Am. J. Physiol. 273:R725-R730. DIO male rats were obtained from Charles River Laboratories, Inc. (Wilmington, Mass.). The rats were housed individually in shoebox cages at 22° C. in a 12/12-hour light dark cycle. Rats were maintained ad-libitum on a moderately high fat diet (32% kcal from fat; Research Diets D1226B) for 6-7 weeks prior to drug treatment. At the end of the fattening period (prior to drug administration), the animals typically achieve a mean body weight of about 500 g.
The DIO animals were divided into four treatment groups. Each group was implanted with subcutaneous osmotic mini-pumps (DURECT Corp., Cupertino, Calif.) designed to deliver vehicle, leptin (500 μg/kg/day), amylin (100 μg/kg/day) or leptin (500 μg/kg/day)+amylin (100 μg/kg/day) for a 14 day period. […] Food intake and body weight were recorded daily. Body composition was measured prior to and after drug treatment using NMR (Echo Medical Systems, Houston, Tex.). […]

[2] = Pair-feeding experiment in DIO rats, amylin+leptin (Example 2); format: in vivo, rat; conditions: two weeks, leptin 500 μg/kg/day with intake restricted to amount consumed by amylin-treated group, FIG. 7
Experimental: Amylin is known to have an anorectic effect on a recipient. In order to examine the effect of amylin+leptin in the context of an anorectic effect of amylin, a pair-feeding experiment was performed. DIO rats and drug treatment groups were established as described above. DIO rats in the vehicle, amylin, and amylin+leptin treatment groups had ad libitum access to food, while intake in the pair-fed leptin treatment was restricted to the amount consumed by the amylin-treated group. Body weight was recorded daily for the two weeks of treatment. […] The combination of amylin+leptin results in a decrease of about 12% in body weight relative to vehicle control.

[3] = 24-week randomized, double-blind, active-drug-controlled study of pramlintide and metreleptin in overweight and obese subjects (Example 8); format: in vivo, human
Experimental: To evaluate inter alia the safety, tolerability and effect of the combination of an amylin agonist (pramlintide) and a leptin (metreleptin) on changes in body weight, a 24-week, randomized, double-blind, active-drug-controlled, multicenter study was conducted under USFDA approved protocols. Secondary objectives of the study were the determination of the pharmacokinetics of pramlintide and leptin, waist circumference, rate of change in body weight, and patient reported outcomes including for example without limitation perception of well-being related to weight change and mood. The study enrolled overweight and obese subjects with defined BMI ([…]), with enrollment statistics as provided in Table 2. […] Subjects treated with pramlintide/metreleptin lost an average of 25 pounds from the start of the 24-week study compared with an average of 17 pounds for subjects treated with pramlintide alone.
In an initial lead-in phase, all subjects received dietary instructions and treatment with pramlintide at 180 mcg BID for two weeks, followed by pramlintide at 360 mcg BID for two weeks. Subjects who completed the 4-week lead-in period and who lost 2-8 percent body weight during this period were eligible to continue the study. The term “enrolled” (Table 2) refers to subjects (N=177) receiving at least one dose of pramlintide during the lead-in period. The term “non-randomized” refers to subjects not continuing in the study past the lead-in period. The term “evaluable” refers to subjects who completed Visit 9 (Week 16) study procedures and adequately complied with the study protocol.
After the 4-week lead-in period, for the remaining 20 weeks of the study the subjects were randomized in a 2:2:1 ratio to one of three groups with BID treatment of 1) pramlintide 360 mcg/metreleptin 5 mg (“Leptin+Pramlintide”); 2) pramlintide 360 mcg/placebo (“Pramlintide”); or 3) metreleptin 5 mg/placebo (“Leptin”).

[4] = In-bred DIO (Levin) rats, amylin and leptin, body weight and NMR body composition (Example 2); format: in vivo, rat; conditions: two weeks, leptin 500 μg/kg/day, amylin 100 μg/kg/day, FIG. 6A
Experimental: They were housed individually in shoebox cages at 22 C in a 12/12-hour light dark cycle.
Body composition was measured prior to and after drug treatment using NMR (Echo Medical Systems, Houston, Tex.). For body composition measurements, rats were briefly placed (˜1 min) in a well-ventilated plexiglass tube that was then inserted into a specialized rodent NMR machine. Rats were scanned prior to pump implantation and on the final day of the experiment. This enabled the calculation of changes in actual grams of fat and dry lean tissue (e.g., grams of body fat after treatment−grams of body fat at baseline=change in grams of body fat) and changes in % body composition for fat and dry lean tissue (e.g., % body fat after treatment−% body fat at baseline=change in % body fat).

[5] = Leptin effect on body weight in normal HSD versus DIO prone rats (Example 3); format: in vivo, rat; conditions: FIG. 9
Experimental: Normal, lean HSD rats were divided into two treatment groups. Each group was implanted with subcutaneous osmotic mini-pumps (DURECT Corp., Cupertino, Calif.) designed to deliver either vehicle or leptin (500 μg/kg/day) for a 14 day period and body weight was recorded weekly. […] The DIO prone animals described herein appear resistant to the weight reducing effect of leptin.

[6] = 4-week pramlintide lead-in, arm of later randomization

B1: murine leptin (protein, UniProt P41160 22-167, looked up)
Leptin: VPIQKVQDDTKTLIKTIVTRINDISHTQSVSAKQRVTGLDFIPGLHPILSLSKMDQTLAVYQQVLTSLPSQNVLQIANDLENLRDLLHLLAFSKSCSLPQTSGLQKPESLDGVLEASLYSTEVVALSRLQGSLQDILQQLDVSPEC
- cumulative food intake ([1]; FIG. 1): no effect
- total changes in body weight ([1]; FIG. 2): no effect
- decrease in body weight relative to vehicle control, pair-fed [2]: ~6%
- rate of change in body weight, early rate ([3]; 0-12 weeks, evaluable population, FIG. 24): −0.19±0.05 kg/week
- Mean Change in Body Weight ([3]; 4-week lead-in period in which all subjects received pramlintide (180 then 360 mcg BID), arm of later randomization): -3.97 kg
- % Weight Loss During Lead-in <5% (share of subjects) [3, 6]: 78%
- % Weight Loss During Lead-in ≧5% (share of subjects) [3, 6]: 22%
- rate of change in body weight, late rate ([3]; 12-20 weeks, evaluable population, FIG. 24): −0.01±0.08 kg/week
- vehicle-corrected decrease in percent body weight [4]: 2%
- body weight ([5]; DIO prone rats, same leptin dose): ineffective
- body weight ([5]; normal, lean HSD rats, leptin 500 μg/kg/day s.c. mini-pump, 14 days): significant and sustained reduction in body weight
